Assay: soluble fraction after stress (log2 fold change); higher = more stays soluble; pooled small domains, quantitative proteomics
Settings: stress: 75 degC
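Note: 20 min heating vs room temperature control held 20 min.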

Row | Sequence | soluble fraction (log2)
1 | HMQISDTSELEAVVQDILKANMDVVAKIKAGKTNSANFLMGQVMKLTKGRAKPDTVLQLILDAVKQ | -0.943
2 | HMQISLAAARVNAGLTQEEVAKAMKVGKQTIVSWEKGNSEPKMSQSRELSELYKIPLDYIFYP | -0.5
3 | HMQITDSGAIETIIDKIIADNPGQVTQYLSGKDKVFGFFVGQTMKASQGKANPAEVNKILQEKLK | -0.0499
4 | HMQITQSSEPIDVSALRLGMFIHLEGGWLSHPFPRSSFKITSEDQLVTLRSLGISVLRWSPELSDPE | -3.52
5 | HMQIVPVDYSTFMQSIDDKTVDHVEIQSNQILYTVKDDHKKYKTGIMNDPTLAQRLMESGATFTQD | 0.12
6 | HMQKAEQIGSLLREKRKSMGLTQDELAQQVEVRRQTLADLELGKNVGSHLLIKVMEHLGVGFDLL | -0.738
7 | HMQKEIKVPDVANMALSEAVEKLQNEGFKVADEQKEVSSDEIEEGKVVKTSPVAGTKKTKGSEITIYISSG | 0.26
8 | HMQKFLEATGENRDAAVENALEQLGLERDDVSVEVLEIGKKGFLGIGATPARVRVTYEAPDI | 0.197
9 | HMQKKEVTVPEVRSKSLKEAAQILSEQNLKYETEPVNVENPDMVVIDQFPKPGGKISEQSVIILYLR | 0.697
10 | HMQKLNIEEQIVYDIIFKNKELSANEIQIKSGIKTSILNALLINLEIKQYIKLKFGNFYEIK | 0.181
11 | HMQKMPEMQILPNGKVKLPDFSGINMRKAAELLQYGKLRLQPYGSGTAYQQKPAAGTEVDEGTVVEIWF | -0.83
12 | HMQKNFYQILGVDSKASPATINAAYERAKSRVIQSGLEDPDTMALLRDAWETLADPGDRAAYDESLAT | 0.0744
13 | HMQKPELLAPAGSLEKAKTAFKYGADAVYMGTSNLSLRSRVTVDDDELIKTIEYAHSINKKVYAALNIYAR | 0.249
14 | HMQKPWFYESSGQRKGGFSEQEMVGLITDGEITHGAIVWRNGLSDWTKLEQTELAAHLDKTA | -0.11
15 | HMQKRDQKKRANMLDSLKVGTRIVTIGGIFGEIAKIKDDRIRIKVAEDVEIWIRRAAVGTVIT | -1.94
16 | HMQKTPFEIMTIYKDQILEMLGKDLTATEISIVLKKKGEKVHPREIRKFQLQHYEEVQDMRKKWRE | -1.17
17 | HMQKWILVNKQGRLSGILDHRAFNTRESATAWFQRTSDISGGTIKIDDYYYVLKNEEYKLLKE | -3.09
18 | HMQKYEDIINVTRERLQNKFYSQTVIPTDDDIYIWLDKVAILEEIKLSKEDRQMLFNLLKKEAT | -1.35
19 | HMQLGQMIVKLRKEQGLTQETFAKKFNVTRQTVSNWENEKSYPDLHTLVKISDEFHLSLDILLK | -3.14
20 | HMQLGSILAYKFPQFGGIDGAWQVRDDSNGTGPYIAFWDAKTIGRGMPTEDELTAWAQEYEA | -0.206
21 | HMQLPTPEDLKKRRNELGLTQSDLAKRAGVSQPLIARIESGDVDPRLSTVRKILDAFEEVEKEQQ | 0.0518
22 | HMQLSASQQQILNHAAVNTDGKLVWFPETLKGGARKKVLDSLFSRALITTDGTHWFVAAEGYEALGIP | -1.06
23 | HMQLTDLSALEAIIKEVLAANPKSVEDYKSGKEKAFGSLVGQAMKATKGKANPETVNSLLRKNLN | 0.729
24 | HMQLTDSDFTRLYTYVKNSYGIDLSKKKQLISSRLTNMLIQQGYRDFTQYTDEIISGKNPEMVSAMLNRLT | -1.33
25 | HMQLTPAQHAILAKAIHSSDGKIEWFPDNVKGGARKKVLEGMFNRALITPDGEGWRIAAEGYDALGMPRP | -0.097
26 | HMQLVGSSAAVLIPAPAGGLGKIRLEFRGQTIDLIAKATDGGALIEGGAVTIVDVRDGQADVSV | -0.939

Row | Sequence | soluble fraction (log2)
27 | HMQMMDATLKIPPSMGKLRGTLYELNSVTSEDVDENGQLALHVRLSSVDWQRLKKRFDSNLDELIVQKN | -0.219
28 | HMQMPLTMATMGEVNKIVKVGGNEETRRFLANLGFVAGAEVVVLSKIGGNVIVNVKDSRVAVNEDMARHIM | -1.19
29 | HMQMSDTAAIGKIVDEVFAENPAALEDYAKGKTNVVDWLTGQVMKKSRGQANPGIASELVQKRLADF | 0.0922
30 | HMQMSDTGAIEAMVKEALDENPQAIEDFKNGKGKALGFLMGQVMKKSKGQANGGIVNKLIKEELQKRIG | 0.292
31 | HMQMTKSEFLDALRRALNGNMAAASVDDNIRFYDSYFYTEETKGRSEAEILSELGDPRILARTLIDAAD | -0.0328
32 | HMQNEIQQLAIDLIARAHKSGASDIHIVDTGTYTRIKFRVLGLLREDSQMEAETGRQMISTIYGILG | -0.0698
33 | HMQNEKLSYFVTETIVTERADLFITKKFPQFSRSQIQKLINSGNITINSNPIKASTEIINKDNIEITIPV | -2.15
34 | HMQNESGLFTMSDLWEAGLMGSENASRKRAAVGAFLGIGFGNGKQFLKRLNHFGVTKEEWESALEQLGE | -1.18
35 | HMQNEVMPYSTFLSEVNSGNVTKVKIDHEQLTGTLKSGKQFTTYILDAATLPSIVAEKGVEVEVVPP | 0.506
36 | HMQNGNYVVQRQDSLWSIAARISGQTHQPIGEVMNHIKALNEHAFVGGNVNRLRTGTNLNLG | -0.224
37 | HMQNKRQEQLLALLAERRDYMTSRQLAEILQVSDRTIRSDVEAINRRSSPPPIESNVRQGYRLNPEA | -0.142
38 | HMQNNIEFTVLEEDAQKRLDVLLSEKTALSRSASASLIEEGGVLVNGRKEPKKYKPVRGEIITAILPE | 0.504
39 | HMQNNTIAFSKFLQEVDNGRVVQVEIQGNNINGILSDGSKFNTYSPNYPALVEKLSEKNVNIVASPV | 0.0941
40 | HMQNPDHLLALAAAAQAAIELGRPDEAEAYYRHLVEVYGVEMASQKPEYLDHSGITNDLRNVAEGFLVG | -1.06
41 | HMQNRIVNTTQGLAADKRGLLVADETGHTTRPGIFASGDVVNGARTVVEAVAHSKIVAESMHQYMQ | 0.654
42 | HMQNSLKAFRVKRGLTTSALSRLTNGEFSTSRISNYETGVRALTIDAAKKLAPHLGASPAQLLNL | -0.694
43 | HMQNSPVFAASDIEDIRVGMTVEHQRFGQGRVMSIEGNGPNKKTTVLFEGIGEKQLLLQYAKLKIV | -0.664
44 | HMQNYLLFEEAKNIVNTLNLTNEKDWSEFIKKDFTYKNQIPIFPNQYYKHKGWVDWNDWLGINK | -1.35
45 | HMQNYTTIIGVIELRLNDISYDNVRKRYHIGRSGITLIMDRYRDSGLSLEDLKQMTPEKVVDLFYPR | -2.55
46 | HMQPAALEAQVIKLVRLHAPIKARQLATILANEFGQHVDRSTVNSLLYQLRAQGKVAQNAAYQWSLT | -2.01
47 | HMQPEKELAPLIGQRVSVRLHDGDGGYRDLLGELESPDSIRKKNGEIAFFDPAKIAALRVVV | 0.0667
48 | HMQPGDRVDALIVGVSGEHVFLDVGGKSEGVMAAAELRNEAGELSAAEGDRVQVYLLSNRNGELIFTA | 0.205
49 | HMQPHLSADEEHLLKILGSDTMHIDALVKRSTLETSNALAALAFLEMKGLVKNIGNMHYIRTYR | -0.552
50 | HMQPIAVHIGTENPMKSLSDLSVVRAQFTSGGRVIGSVAVLGPTRMQYSRIVGMMRFMQQRLDLLLKG | -0.0629
51 | HMQPKKLNMYYDYVRQLLESHPYLSAAQIEDRLKEEFTELPMVHSKTVFNFVENIRLQHGINKHA | -0.219
52 | HMQPLRQGDFVTSEVVKVQDGTAVLRTAQGTLLSASLTGNLGLLPGDRVETVVVEASPGRFVLRVLDIIR | -0.747

Row | Sequence | soluble fraction (log2)
53 | HMQPPLTPRELGVLQWAAEGKTTRDTSAILQIHQRTVEMHLKSAREKLDALNTTHAVARALAHGFILPPS | -0.0091
54 | HMQPPVDGNEIMEIFGIKGSPVIGVIKSTIKNAILDGIIAPNDREAALELMFRIADENGLKPVVTQTQ | -0.0513
55 | HMQPRYMLIKTAILDAIERGEMKPGSQVPSENQLAQQHNVSRMTARRALSEMVDDGILMRSQGIGTFVSD | -0.228
56 | HMQPSFFEMIRMVESYIKQHFENVGNEFPEIARAIYYGIEEERNIYGTASREDMEELLDEGIPILPVP | -0.914
57 | HMQPVEHLPTTDPLTTSAASEHERYEKVRWWLEEMQRTYETGDEVRAERIRLSLIEQMYKWEGE | -0.513
58 | HMQPYTYNPNFLSDYRAYSLGIPLEAYDKLVQFRASGSFVNSMSDFQKITGVSDSLLAVLHSKFRYPK | -0.826
59 | HMQQELEEMESGNLVRTAIDSLPINQRTAFILSAYEELPIKEIASIMNRSEGAVEQLLQRAKMNLKKKIK | 0.233
60 | HMQQLTDRELEVLRLLAAGLSNNKIGEKLYISATTAKFHVSNIMRKLEVSRRAEAVYAASKRGL | -2.26
61 | HMQQLTQRELTLLRLLANGYNNRQIAEQLQLAESTVKNNLSALFQKIGVRDRTQAVLFAISQGLVP | -1.04
62 | HMQQNDMTELRALAEKIISENDSVINDYKSGQGSALQFLIGQAMKETKGSANPQVISEIFTDLL | -0.354
63 | HMQQPIPGEAYLTRRPGSDHFQIAFTIDGHRVRESSGTSDKVAAAALAQKRYEEVWREIKLGEK | -0.0824
64 | HMQQPVAYSEFVQSVNDRQIREAQIQGERIVATDNNGNRMTVIWPENDTKLLDELVQNGVLTSIQE | 0.116
65 | HMQQVDWGSVFGDFGTMFKDQLQPTIDRLRRMAQSDTFRQSSLEEQQILYSLIEKLERSGTA | -1.89
66 | HMQQVIEGLDSDRDFITVPEAIALFAVGRQTLYHYIRSGKIPSVNLGQRLTRLSKKQLGELFPLR | -1.97
67 | HMQRGRTFSIVLNWKGRLLSTQMFFPQFTRPTKEQVTFEINKVYPGAMVYYYNPIEKDPSQPLV | -2.26
68 | HMQRLSRREIEVLHWIAEGKSDWQIGQILSISAKTVNYHTENLKRKFGVATRMQAVVSAIKQGAFVPGE | -4.11
69 | HMQRVSDKVAAQLRVLVQEQQLKPGDRLPAERALAVQLGVSRTALREAIAQLASQGLLTARVGGGTYVAEP | -1.08
70 | HMQRYVVDENLKLDKKDINHIINVMRLNVNDQIKLINNGTIYDAIITKIEKNNVLYEIIKKEESK | -0.661
71 | HMQSANQLIKLSRKRKGLTQQELADQAGVSLRTVQRIEKGTEEISGFSLKQISQILEIPLEQLIM | -0.652
72 | HMQSLDGPSRAAIVLMAIGPDVAGELIKSFSPAEAQKVSSLLATVRSLDREVMIEVLDSFKNITEH | -0.339
73 | HMQSLPFSFAKRHGVLLKSINHLHGEAVYRIGANPLSLSEVQRYAGVPLKLSSITVEKFDRLLQETYEHD | -1.17
74 | HMQSLSDQVFFYLKERIINNEMVPGSIISIEKLTSEFGISNTPVREAIVRLAGLDLVTIHRNKNITVS | -2.19
75 | HMQSMSADDWSEKARVLMSAGIIVMGQEAKEKILNLKSLVPLIEAASASNVSMIDSRTFDELLMIIP | -2.46
76 | HMQSREISYSEFVTAVEAGDVRNVTLDGEQVRFRRADGSDYVTIRPEDAEVTKLLMANDIPVRAEP | 0.116
77 | HMQSRRTPASLVERVRQLNGQYQDKEIAELLNREGIKTAHGNEFNAKRIEMIRRHNGISKHSAQ | -0.075
